Assay results reported in article PMC9398005.

Assays:
[1] = molecular target: Drosophila Su(H) (98-523) WT (Drosophila) (UniProt P28159); assay: ITC; cofactor (RAM peptide, Hairless or SHARP) in the syringe, Su(H) or Rbpj in the cell; 50 mM sodium phosphate, 150 mM sodium chloride; 20 injections, triplicate, one site model; 25°C by the legend, 20°C by the methods
[2] = molecular target: Drosophila Su(H) E137V (98-523) (Drosophila) (UniProt P28159); assay: ITC; RAM peptide, Hairless or SHARP in the syringe, Su(H) or Rbpj in the cell; 50 mM sodium phosphate, 150 mM sodium chloride; 20 injections of 14 uL; triplicate; one site binding model; 20°C by the methods, 25°C by the legend of Fig 6
[3] = molecular target: Drosophila Su(H) K132M (98-523) (Drosophila) (UniProt P28159); assay: as above
[4] = molecular target: Drosophila Su(H) WT (98-523) (Drosophila) (UniProt P28159); assay: as above

B1: Drosophila Notch RAM peptide (residues 1763-1790) (peptide)
peptide: VLSTQRKRAHGVTWFPEGFRAPAAVMSR
- Kd [1]: 187 nM
- Ka [2]: 6.5e+06 M⁻¹
- Ka [3]: 1.2e+07 M⁻¹
- Ka [4]: 5.4e+06 M⁻¹
- Kd [4]: 187 nM
